As usually defined, the Kd is the free concentration of one partner at which half of the binding sites on the other are occupied at equilibrium, for simple one-to-one binding. A high value points to lower affinity.

The target of data set [1] is T1, AsCas12a (UniProt U2UMQ6 1-1307). Put plainly: BLI. Background: In BLI a coated tip is dipped into the sample, and binding shifts an interference pattern.
The target in data set [2] is T1, AsCas12a. Kind of data set: EMSA. For orientation: A gel shift assay detects complexes by their altered migration in electrophoresis.

For the molecule AGCACCCAGTCCGCCCTGAGTAGATGTGAATCATCTTTAAT (ssDNA) [AsCas12a GFP ΨDNA w/ biotin], in data set [1], binding was put at a Kd of 24.5 nM. This counts as double-digit nanomolar.

B1: AsCas12a ΨDNA + RNA target (EMSA) (DNA:RNA)
DNA: AGCACCCAGTCCGCCCTGAGTAGATGTGAATCATCTTTAAT
RNA: CUCAGGGCGGACUGGGUGCU
For B1, the binding result in data set [2] is on record as “binds”.

B2: AsCas12a ΨDNA + RNA target (EMSA, FAM ΨDNA) (DNA:RNA)
DNA: AGCACCCAGTCCGCCCTGAGTAGATGTGAATCATCTTTAAT
RNA: CUCAGGGCGGACUGGGUGCU
As to B2, in data set [2], the binding result is given as “binds”.

The values above are taken from paper PMC13403136.
